From patent US9879094B2, “Nucleic acid molecules encoding for BACE1 antibodies” (Genentech, Inc., priority 2010, dated 2018)

B1: LC4: affinity matured clone derived from Fab5 (antibody, V domains shown)
VL: DIQMTQSPSSLSASVGDRVTITCRASQSVSSAVAWYQQKPGKAPKLLIYSASSLYSGVPSRFSGSGSGTDFTLTISSLQPEDFATYYCQQYSYSLLTFGQGTKVEIK
VH: EISEVQLVESGGGLVQPGGSLRLSCAASGFNLSYSYIHWVRQAPGKGLEWVASIYSSYGSTYYADSVKGRFTISADTSKNTAYLQMNSLRAEDTAVYYCARSYHHSDKYYYAWSYALDYWGQGTLVTVSS
B2: LC40 (antibody, V domains shown)
VL: DIQMTQSPSSLSASVGDRVTITCRASQYSYSYSVAWYQQKPGKAPKLLISYASYLYSGVPSRFSGSGSGTDFTLTISSLQPEDFATYYCQQYSYSYSPITFGQGTKVEIK
VH: EISEVQLVESGGGLVQPGGSLRLSCAASGFNVSSSSMHWVRQAPGKGLEWVASIYPYSSSTSYADSVKGRFTISADTSKNTAYLQMNSLRAEDTAVYYCARYSYYSYGIDYWGQGTLVTVSS

Target: BACE1 (Homo sapiens, UniProt P56817)
Assay: HTRF BACE1 enzyme activity assay (long peptide Bi27)
Type: biochemical
Conditions: purified affinity matured Fabs
Protocol: The HTRF assay was performed as follows. […] The proteolytic reaction mixture was incubated at ambient temperature for 75 minutes and was quenched by the addition of 5 μL HTRF detection mixture containing 2 nM Streptavidin-D2 and 150 nM of 6E10 anti-amyloid beta antibody (Covance, Emoryville, Calif.) labeled with Europium cryptate in detection buffer (200 mM Tris pH 8.0, 20 mM EDTA, 0.1% BSA, and 0.8M KF). The final reaction mixture was incubated at ambient temperature for 60 minutes and the TR-FRET signal was measured using an EnVision Multilabel Plate Reader™ (Perkin-Elmer) at an excitation wavelength of 320 nm and emission wavelengths of 615 and 665 nm. Reactions lacking BACE1 enzyme (0 BACE) and reactions containing lacking anti-BACE1 antibodies (PBS (100% BACE1 Activity) were used as controls.
Fab proteins of 6 clones were purified and subjected for HTRF enzyme activity assay, as described above.
The affinity matured YW412.8.31 anti-BACE1 antibody was tested in a HTRF assay as described in Example 1. […] Additionally, reactions using a short FRET peptide (Rh-[…]-quencher (SEQ ID NO:54), Invitrogen) were also performed identically to the HTRF reactions. The resulting fluorogenic products from the control reactions were measured as above, but at an excitation wavelength of 545 nm and an emission wavelength of 585 nm. Obtained data were analyzed using GraphPad Prism 5™ (LaJolla, Calif.).

Chain of BACE1 (P56817 22-457): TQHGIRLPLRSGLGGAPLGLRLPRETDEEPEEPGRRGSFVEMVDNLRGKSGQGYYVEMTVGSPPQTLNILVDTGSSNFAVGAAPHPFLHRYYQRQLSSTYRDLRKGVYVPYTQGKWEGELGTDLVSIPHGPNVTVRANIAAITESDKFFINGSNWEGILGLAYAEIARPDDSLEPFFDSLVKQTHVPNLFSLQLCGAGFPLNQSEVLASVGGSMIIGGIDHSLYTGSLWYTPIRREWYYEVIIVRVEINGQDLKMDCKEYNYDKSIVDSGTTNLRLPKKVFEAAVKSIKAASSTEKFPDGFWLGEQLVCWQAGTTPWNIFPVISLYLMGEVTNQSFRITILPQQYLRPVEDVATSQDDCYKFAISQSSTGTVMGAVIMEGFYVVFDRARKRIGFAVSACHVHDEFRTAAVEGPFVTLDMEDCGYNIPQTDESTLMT

Row | Molecule | inhibition activity compared to parent Fab
1 | B1 | significant improved inhibition
2 | B2 | lost its inhibition activity
